# From patent publication US20240091164
# Target: fluorescein isothiocyanate-tagged BSA (FITC-BSA) (UniProt P02769)
# Sequence (P02769 25-607): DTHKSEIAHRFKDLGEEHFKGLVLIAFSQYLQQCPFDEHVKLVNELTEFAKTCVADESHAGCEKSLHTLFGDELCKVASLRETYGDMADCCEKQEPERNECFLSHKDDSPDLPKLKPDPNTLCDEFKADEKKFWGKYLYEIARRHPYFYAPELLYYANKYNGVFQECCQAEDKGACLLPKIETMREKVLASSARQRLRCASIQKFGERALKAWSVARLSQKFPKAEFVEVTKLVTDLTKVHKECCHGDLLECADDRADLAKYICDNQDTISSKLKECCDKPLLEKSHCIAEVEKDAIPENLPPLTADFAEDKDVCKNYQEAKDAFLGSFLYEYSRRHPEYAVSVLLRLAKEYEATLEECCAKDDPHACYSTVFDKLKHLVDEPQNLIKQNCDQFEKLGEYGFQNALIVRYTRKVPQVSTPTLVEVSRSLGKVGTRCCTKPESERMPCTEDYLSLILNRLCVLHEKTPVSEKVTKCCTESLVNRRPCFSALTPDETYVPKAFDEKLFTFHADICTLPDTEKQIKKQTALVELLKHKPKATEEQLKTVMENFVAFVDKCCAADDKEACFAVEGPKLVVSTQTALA
substance,measurement,value
trypsin,increase in fluorescence from proteolytic cleavage of quenched FITC-BSA,This assay confirmed the ability of trypsin@NP to cleave BSA
